# Ends that are not written are not given here.
# T1: ApoC3 peptide … F47K (human, not fully specified (bridges); also: cyclic constrained)
# T1 peptide: ARGWVTDGKSSLK
# T2: ApoC3 peptide … F47R (human, also: cyclic constrained)
# T2 peptide: ARGWVTDGRSSLK
# T3: ApoC3 peptide … G46A (human, also: cyclic constrained)
# T3 peptide: ARGWVTDAFSSLK
# T4: ApoC3 peptide … G46W (human, thioether (positions not given here); also: cyclic constrained)
# T4 peptide: ARGWVTDWFSSLK
# T5: ApoC3 peptide … A39M (human, cyclic constrained)
# T5 peptide: MRGWVTDGFSSLK
# T6: ApoC3 peptide … A39W (human, not fully specified (bridges); also: cyclic constrained)
# T6 peptide: WRGWVTDGFSSLK
# T7: ApoC3 peptide … T44A (human, not fully specified (bridges); also: cyclic constrained)
# T7 peptide: ARGWVADGFSSLK
# T8: ApoC3 peptide … G41I (human, also: cyclic constrained)
# T8 peptide: ARIWVTDGFSSLK
# T9: ApoC3 peptide … S49W (human, not fully specified (bridges); also: cyclic constrained)
# T9 peptide: ARGWVTDGFSWLK
# T10: ApoC3 peptide … D45S (human, cyclic constrained)
# T10 peptide: ARGWVTSGFSSLK
# T11: ApoC3 peptide … K51L (human, not fully specified; cyclic constrained)
# T11 peptide: ARGWVTDGFSSLL
# T12: ApoC3 peptide … W42E (human, not fully specified (bridges); also: cyclic constrained)
# T12 peptide: ARGEVTDGFSSLK
# T13: ApoC3 peptide … A39F (human, cyclic constrained)
# T13 peptide: FRGWVTDGFSSLK
# T14: ApoC3 peptide … D45V (human, cyclic constrained)
# T14 peptide: ARGWVTVGFSSLK
# T15: ApoC3 peptide … T44Y (human, not fully specified (bridges); also: cyclic constrained)
# T15 peptide: ARGWVYDGFSSLK
# T16: ApoC3 peptide … G41F (human, also: cyclic constrained)
# T16 peptide: ARFWVTDGFSSLK
# T17: ApoC3 peptide … F47H (human, not fully specified (bridges); also: cyclic constrained)
# T17 peptide: ARGWVTDGHSSLK
# T18: ApoC3 peptide … A39L (human, cyclic constrained)
# T18 peptide: LRGWVTDGFSSLK
# T19: ApoC3 peptide … V43D (human, not fully specified; cyclic constrained)
# T19 peptide: ARGWDTDGFSSLK
# T20: ApoC3 peptide … W42F (human, not fully specified (bridges); also: cyclic constrained)
# T20 peptide: ARGFVTDGFSSLK
# T21: ApoC3 peptide … F47V (human, also: cyclic constrained)
# T21 peptide: ARGWVTDGVSSLK
# T22: ApoC3 peptide … F47P (human, not fully specified (bridges); also: cyclic constrained)
# T22 peptide: ARGWVTDGPSSLK
# T23: ApoC3 peptide … W42Q (human, not fully specified (bridges); also: cyclic constrained)
# T23 peptide: ARGQVTDGFSSLK
# T24: ApoC3 peptide … V43L (human, not fully specified; cyclic constrained)
# T24 peptide: ARGWLTDGFSSLK
# T25: ApoC3 peptide … L50H (human, not fully specified; cyclic constrained)
# T25 peptide: ARGWVTDGFSSHK
# T26: ApoC3 peptide … T44W (human, not fully specified (bridges); also: cyclic constrained)
# T26 peptide: ARGWVWDGFSSLK
# T27: ApoC3 peptide … T44R (human, not fully specified (bridges); also: cyclic constrained)
# T27 peptide: ARGWVRDGFSSLK
# T28: ApoC3 peptide … A39G (human, cyclic constrained)
# T28 peptide: GRGWVTDGFSSLK
# T29: ApoC3 peptide … W42M (human, not fully specified (bridges); also: cyclic constrained)
# T29 peptide: ARGMVTDGFSSLK
# T30: ApoC3 peptide … F47C (human, not fully specified (bridges); also: cyclic constrained)
# T30 peptide: ARGWVTDGCSSLK
# T31: ApoC3 peptide … K51W (human, not fully specified; cyclic constrained)
# T31 peptide: ARGWVTDGFSSLW
# B1: anti-ApoC3 antibody 14C7 (antibody, V domains shown)
# VH: QVQVQESGPGLVKPSQTLSLTCTVSGGSITTNSYYWSWIRQPPGKGLEWMGAIDYSGDTYYSPSLKSRTSISRDTSKNQFTLQLTSVTPEDTAVYYCVSRIPTGEYWGQGTQVTVSS
# VL: QTVVTQEPSLSVSPGGTVTLTCGLNSGSVTSSNYPDWYQQTPGQAPRLLIYNTNSRHSGVPSRFSGSISGNKAALTITGAQPEDEADYYCALYMGSDSVVFGGGTHLTVL
# notes: it was detected with goat anti-human IgG (Fc); also called mAb 14C7; llama antibody 14C7
# Columns and labels:
# Assay in all cases: peptide microarray
# ApoC3 peptide … F47K = biological target: T1, ApoC3 peptide … F47K
# Text: (§1) Amino acids G41 and G46 were highly conserved; substitution of G41 by E, N or Q caused a decrease of spot intensities by ˜70% or higher, whereas exchange of G46 by N was hardly tolerated and resulting in 90% reduced spot intensities. […] Amino acid positions V43, D45 and K51 were also well conserved with a clear preference for the wild type amino acids and a certain tolerance particularly for conservative exchanges by Y, F and I (V43), A, E and K (D45) as well as by R (K51). […] Replacement of V43 by Y, however, increased spot intensity by two fold. Amino acid positions W42 and 48S were poorly conserved or even variable; both positions were susceptible for only a number of amino acid exchanges, and exchange by F, S and T (W42) or by E (S48) even caused a two- to three-fold increase of spot intensity. Amino acid positions A39 and R40 were variable.
# (§2) Pre: staining of one of the ApoC3 peptide microarrays was done with the secondary antibody goat anti-human IgG (Fe) DyLight680 (1:5000) and control antibody mouse monoclonal anti-HA (12CA5) DyLight800 (1:2000) to investigate background interactions of the secondary antibody with the antigen-derived peptides that could interfere with the main assays. Subsequent incubation of other ApoC3 peptide microarrays with antibody samples was followed by staining with secondary and control antibodies as well as read-out at scanning intensities of 7/7 (red/green). The additional HA peptides framing the peptide arrays were stained as internal quality control to confirm the assay quality and the peptide microarray integrity.
# ApoC3 peptide … F47R = biological target: T2, ApoC3 peptide … F47R
# Text: as §1, §2
# ApoC3 peptide … G46A = biological target: T3, ApoC3 peptide … G46A
# Text: as §1, §2
# ApoC3 peptide … G46W = biological target: T4, ApoC3 peptide … G46W
# Text: as §1, §2
# ApoC3 peptide … A39M = biological target: T5, ApoC3 peptide … A39M
# Text: as §1, §2
# ApoC3 peptide … A39W = biological target: T6, ApoC3 peptide … A39W
# Text: as §1, §2
# ApoC3 peptide … T44A = biological target: T7, ApoC3 peptide … T44A
# Text: as §1, §2
# ApoC3 peptide … G41I = biological target: T8, ApoC3 peptide … G41I
# Text: as §1, §2
# ApoC3 peptide … S49W = biological target: T9, ApoC3 peptide … S49W
# Text: as §1, §2
# ApoC3 peptide … D45S = biological target: T10, ApoC3 peptide … D45S
# Text: as §1, §2
# ApoC3 peptide … K51L = biological target: T11, ApoC3 peptide … K51L
# Text: as §1, §2
# ApoC3 peptide … W42E = biological target: T12, ApoC3 peptide … W42E
# Text: as §1, §2
# ApoC3 peptide … A39F = biological target: T13, ApoC3 peptide … A39F
# Text: as §1, §2
# ApoC3 peptide … D45V = biological target: T14, ApoC3 peptide … D45V
# Text: as §1, §2
# ApoC3 peptide … T44Y = biological target: T15, ApoC3 peptide … T44Y
# Text: as §1, §2
# ApoC3 peptide … G41F = biological target: T16, ApoC3 peptide … G41F
# Text: as §1, §2
# ApoC3 peptide … F47H = biological target: T17, ApoC3 peptide … F47H
# Text: as §1, §2
# ApoC3 peptide … A39L = biological target: T18, ApoC3 peptide … A39L
# Text: as §1, §2
# ApoC3 peptide … V43D = biological target: T19, ApoC3 peptide … V43D
# Text: as §1, §2
# ApoC3 peptide … W42F = biological target: T20, ApoC3 peptide … W42F
# Text: as §1, §2
# ApoC3 peptide … F47V = biological target: T21, ApoC3 peptide … F47V
# Text: as §1, §2
# ApoC3 peptide … F47P = biological target: T22, ApoC3 peptide … F47P
# Text: as §1, §2
# ApoC3 peptide … W42Q = biological target: T23, ApoC3 peptide … W42Q
# Text: as §1, §2
# ApoC3 peptide … V43L = biological target: T24, ApoC3 peptide … V43L
# Text: as §1, §2
# ApoC3 peptide … L50H = biological target: T25, ApoC3 peptide … L50H
# Text: as §1, §2
# ApoC3 peptide … T44W = biological target: T26, ApoC3 peptide … T44W
# Text: as §1, §2
# ApoC3 peptide … T44R = biological target: T27, ApoC3 peptide … T44R
# Text: as §1, §2
# ApoC3 peptide … A39G = biological target: T28, ApoC3 peptide … A39G
# Text: as §1, §2
# ApoC3 peptide … W42M = biological target: T29, ApoC3 peptide … W42M
# Text: as §1, §2
# ApoC3 peptide … F47C = biological target: T30, ApoC3 peptide … F47C
# Text: as §1, §2
# ApoC3 peptide … K51W = biological target: T31, ApoC3 peptide … K51W
# Text: as §1, §2
binder,measurement,setting,value
B1,% of binding to wild-type peptide,ApoC3 peptide … F47K,0.12%
same,% of binding to wild-type peptide,ApoC3 peptide … F47R,0%
same,% of binding to wild-type peptide,ApoC3 peptide … G46A,0%
same,% of binding to wild-type peptide,ApoC3 peptide … G46W,0%
same,% of binding to wild-type peptide,ApoC3 peptide … A39M,90.7%
same,% of binding to wild-type peptide,ApoC3 peptide … A39W,59.4%
same,% of binding to wild-type peptide,ApoC3 peptide … T44A,0%
same,% of binding to wild-type peptide,ApoC3 peptide … G41I,5.33%
same,% of binding to wild-type peptide,ApoC3 peptide … S49W,0.27%
same,% of binding to wild-type peptide,ApoC3 peptide … D45S,20.8%
same,% of binding to wild-type peptide,ApoC3 peptide … K51L,0.33%
same,% of binding to wild-type peptide,ApoC3 peptide … W42E,98.5%
same,% of binding to wild-type peptide,ApoC3 peptide … A39F,78.2%
same,% of binding to wild-type peptide,ApoC3 peptide … D45V,1.21%
same,% of binding to wild-type peptide,ApoC3 peptide … T44Y,0%
same,% of binding to wild-type peptide,ApoC3 peptide … G41F,10.8%
same,% of binding to wild-type peptide,ApoC3 peptide … F47H,0%
same,% of binding to wild-type peptide,ApoC3 peptide … A39L,77.5%
same,% of binding to wild-type peptide,ApoC3 peptide … V43D,0%
same,% of binding to wild-type peptide,ApoC3 peptide … W42F,242%
same,% of binding to wild-type peptide,ApoC3 peptide … F47V,0.06%
same,% of binding to wild-type peptide,ApoC3 peptide … F47P,0%
same,% of binding to wild-type peptide,ApoC3 peptide … W42Q,93.1%
same,% of binding to wild-type peptide,ApoC3 peptide … V43L,429%
same,% of binding to wild-type peptide,ApoC3 peptide … L50H,0%
same,% of binding to wild-type peptide,ApoC3 peptide … T44W,0%
same,% of binding to wild-type peptide,ApoC3 peptide … T44R,0%
same,% of binding to wild-type peptide,ApoC3 peptide … A39G,93%
same,% of binding to wild-type peptide,ApoC3 peptide … W42M,79.4%
same,% of binding to wild-type peptide,ApoC3 peptide … F47C,0%
same,% of binding to wild-type peptide,ApoC3 peptide … K51W,0%

# From US20190241648A1 (STATEN BIOTECHNOLOGY B V, published 2019)
